The supplement of paper PMC7877785
± gives the uncertainty stated by the source.

Experiment: self-splicing fitness, log relative to wild type (ln ratio); higher = more splicing; Tetrahymena group I intron in knt gene, E. coli kanamycin selection, DiMSum; sequences stand for … in CUCUCU…GGAGGGAAAAGUUAUCAGGCAUGCACCUGGUAGCUAGUCUUUAAACCAAUAGAUUGCAUCGGUUUAAAAGGCAAGACCGUCAAAUUGCGGGAAAGGGGUCAACAGCCGUUCAGUACCAAGUCUCAGGGGAAACUUUGAGAUGGCCUUGCAAAGGGUAUGGUAAUAAGCUGACGGACAUGGUCCUAACCACGCAGCCAAGUCCUAAGUCAACAGAUCUUCUGUUGAUAUGGAUGCAGUUCACAGACUAAAUGUCGGUCGGGGAAGAUGUAUUCUUCUCAUAAGAUAUAGUCGGACCUCUCCUUAAUGGGAGCUAGCGGAUGAAGUGAUGCAACACUGGAGCCGCUGGGAACUAAUUUGUAUGCGAAAGUAUAUUGAUUAGUUUUGGAGUACUCGUGGUCG
Outline: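 Library with all eight P1ex-region intron nucleotides randomised, intron inside the knt kanamycin-resistance gene on pET-22b(+), in E. coli BL21(DE3). Cells grew overnight at 37°C or 30°C on LB agar with or without 25 μg/mL kanamycin (plus 100 μg/mL carbenicillin, 50 μM IPTG, 0.2% rhamnose), in six replicate transformations. Pooled colonies were amplicon-sequenced on Illumina HiSeq 2500. DiMSum fitness is the error-weighted combination of wild-type-normalised replicate fold changes, kanamycin versus none.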

Sequence	self-splicing fitness (ln) (30 °C)	self-splicing fitness (ln) (37 °C)
UAUUAGCAAUAUUACGCCGG	-0.99 ± 0.22	-0.907 ± 0.26
UAUUAGCAAUAUUACGCGAA	-2.22 ± 0.29	-0.951 ± 0.17
UAUUAGCAAUAUUACGCGUC	-4.05 ± 0.35	-2.57 ± 0.26
UAUUAGCAAUAUUACGCUAC	-2.5 ± 0.41	-1.15 ± 0.47
UAUUAGCAAUAUUACGCUCU	-1.02 ± 0.17	-0.332 ± 0.32
UAUUAGCAAUAUUACGCUUA	-1.05 ± 0.2	-0.89 ± 0.25
UAUUAGCAAUAUUACGGCAG	-0.281 ± 0.085	-0.424 ± 0.12
UAUUAGCAAUAUUACGGCCA	-0.0346 ± 0.21	-0.902 ± 0.16
UAUUAGCAAUAUUACGGCGG	-0.834 ± 0.11	-0.195 ± 0.12
UAUUAGCAAUAUUACGGGCA	-0.498 ± 0.19	-0.39 ± 0.17
UAUUAGCAAUAUUACGGUCA	-0.76 ± 0.1	-0.0892 ± 0.095
UAUUAGCAAUAUUACGUAGG	-1.57 ± 0.14	-1.33 ± 0.23
UAUUAGCAAUAUUACGUCAU	-3.69 ± 0.31	-2.81 ± 0.27
UAUUAGCAAUAUUACGUCGA	-1.27 ± 0.16	-0.984 ± 0.17
UAUUAGCAAUAUUACGUGUG	-0.846 ± 0.067	-0.549 ± 0.084
UAUUAGCAAUAUUACGUGUU	-3.04 ± 0.29	-2.86 ± 0.32
UAUUAGCAAUAUUACGUUUU		-0.0777 ± 0.32
UCAAAGCAAUAUUACGAAUC		-2.76 ± 0.38
UCAAAGCAAUAUUACGACCU	-1.84 ± 0.19	-0.48 ± 0.19
UCAAAGCAAUAUUACGCAGC	-3.94 ± 0.29	-2.72 ± 0.17
UCAAAGCAAUAUUACGCCAU	-3.37 ± 0.24	-2.27 ± 0.19
UCAAAGCAAUAUUACGCUAU	-3.44 ± 0.22	-1.41 ± 0.18
UCAAAGCAAUAUUACGGACA	-0.451 ± 0.13	0.0835 ± 0.14
UCAAAGCAAUAUUACGGCAA	-1.37 ± 0.15	-0.568 ± 0.12
UCAAAGCAAUAUUACGGCUA	-0.599 ± 0.1	-1.31 ± 0.13

Sequence	self-splicing fitness (ln) (30 °C)	self-splicing fitness (ln) (37 °C)
UCAAAGCAAUAUUACGGCUC		-0.154 ± 0.2
UCAAAGCAAUAUUACGGGAU	-2.04 ± 0.16	-2.46 ± 0.25
UCAAAGCAAUAUUACGGGGG	-2.55 ± 0.14	-1.49 ± 0.14
UCAAAGCAAUAUUACGGUCA	-0.88 ± 0.1	-0.6 ± 0.1
UCAAAGCAAUAUUACGUAUA	-3.27 ± 0.18	-2.17 ± 0.17
UCAAAGCAAUAUUACGUCAA	-2.84 ± 0.23	-2.71 ± 0.29
UCAAAGCAAUAUUACGUGCU	-4.45 ± 0.3	-2.93 ± 0.21
UCAAAGCAAUAUUACGUGUG	-1.51 ± 0.058	-0.749 ± 0.066
UCACAGCAAUAUUACGAACC	-1.05 ± 0.33	-1.68 ± 0.34
UCACAGCAAUAUUACGACCU	-2.97 ± 0.24	-1.16 ± 0.19
UCACAGCAAUAUUACGAGAC	-4.56 ± 0.46	-2.61 ± 0.2
UCACAGCAAUAUUACGAGGG	-2.01 ± 0.088	-1.28 ± 0.12
UCACAGCAAUAUUACGAGUU	-3.54 ± 0.17	-2.08 ± 0.14
UCACAGCAAUAUUACGAUAG	-2.75 ± 0.14	-1.22 ± 0.12
UCACAGCAAUAUUACGAUUA	-1.43 ± 0.1	-0.545 ± 0.11
UCACAGCAAUAUUACGAUUU	-4.01 ± 0.21	-0.814 ± 0.11
UCACAGCAAUAUUACGCCAA	-3.45 ± 0.44	-2.74 ± 0.38
UCACAGCAAUAUUACGCCUA	-1.95 ± 0.3	-0.577 ± 0.18
UCACAGCAAUAUUACGCGGG	-3.28 ± 0.12	-2.56 ± 0.16
UCACAGCAAUAUUACGCUGG	-3.9 ± 0.26	-2.94 ± 0.22
UCACAGCAAUAUUACGGAAU	-4.32 ± 0.25	-2.97 ± 0.22
UCACAGCAAUAUUACGGCCG	-1.24 ± 0.1	-0.536 ± 0.15
UCACAGCAAUAUUACGGCGA	0.0998 ± 0.092	0.202 ± 0.094
UCACAGCAAUAUUACGGCGU	-3.04 ± 0.19	-2.93 ± 0.2
UCACAGCAAUAUUACGGCUU	-3.43 ± 0.22	-1.85 ± 0.17

Sequence	self-splicing fitness (ln) (30 °C)	self-splicing fitness (ln) (37 °C)
UCACAGCAAUAUUACGGUAA	-1 ± 0.084	-0.187 ± 0.088
UCACAGCAAUAUUACGUACU	-2.82 ± 0.17	-2.09 ± 0.22
UCACAGCAAUAUUACGUAGA	-1.09 ± 0.063	-0.0941 ± 0.075
UCACAGCAAUAUUACGUCCG	-1.21 ± 0.086	-0.358 ± 0.098
UCACAGCAAUAUUACGUUCC	-3.38 ± 0.21	-1.47 ± 0.22
UCACAGCAAUAUUACGUUGG	-2.84 ± 0.11	-2.81 ± 0.18
UCAGAGCAAUAUUACGAACU	-2.02 ± 0.33	
UCAGAGCAAUAUUACGAGUG	-2.93 ± 0.29	-0.458 ± 0.17
UCAGAGCAAUAUUACGAUGG	-2.97 ± 0.21	-1.33 ± 0.2
UCAGAGCAAUAUUACGCGAU	-3.02 ± 0.26	-2.08 ± 0.4
UCAGAGCAAUAUUACGCGUA	-2.57 ± 0.32	-0.569 ± 0.16
UCAGAGCAAUAUUACGGAAU	-2.94 ± 0.17	-2.22 ± 0.15
UCAGAGCAAUAUUACGGAUC		-2.15 ± 0.33
UCAGAGCAAUAUUACGGGCU	-4.78 ± 0.36	-2.46 ± 0.25
UCAGAGCAAUAUUACGGGGC	-3.3 ± 0.26	-2.42 ± 0.41
UCAGAGCAAUAUUACGUAAC	-2.5 ± 0.26	
UCAGAGCAAUAUUACGUAAG	-2.92 ± 0.14	-1.82 ± 0.13
UCAGAGCAAUAUUACGUAGA	-0.896 ± 0.075	0.113 ± 0.12
UCAGAGCAAUAUUACGUCAU	-3.84 ± 0.35	
UCAGAGCAAUAUUACGUCGG	-1.87 ± 0.2	-0.479 ± 0.16
UCAGAGCAAUAUUACGUCUC	-2.81 ± 0.34	
UCAGAGCAAUAUUACGUGGG	-3.2 ± 0.16	-1.96 ± 0.14
UCAGAGCAAUAUUACGUGGU	-4.35 ± 0.39	-1.78 ± 0.22
UCAGAGCAAUAUUACGUUAG	-3.86 ± 0.42	-3.25 ± 0.35
UCAGAGCAAUAUUACGUUCG	-1.54 ± 0.11	-1.07 ± 0.15

Sequence	self-splicing fitness (ln) (30 °C)	self-splicing fitness (ln) (37 °C)
UCAUAGCAAUAUUACGAAGA	-2.06 ± 0.36	-1.56 ± 0.38
UCAUAGCAAUAUUACGACGU	-1.76 ± 0.12	-1.37 ± 0.15
UCAUAGCAAUAUUACGAGAU	-3.85 ± 0.21	-3.29 ± 0.26
UCAUAGCAAUAUUACGAGGU	-2.98 ± 0.24	-3.42 ± 0.32
UCAUAGCAAUAUUACGAUCU	-3.02 ± 0.19	-1.88 ± 0.18
UCAUAGCAAUAUUACGAUGU	-2.55 ± 0.12	-0.735 ± 0.1
UCAUAGCAAUAUUACGCACA	-1.21 ± 0.13	-0.159 ± 0.11
UCAUAGCAAUAUUACGCAUA		-1.34 ± 0.47
UCAUAGCAAUAUUACGCCCU	-2.75 ± 0.36	
UCAUAGCAAUAUUACGCGGG	-2.79 ± 0.14	-1.99 ± 0.12
UCAUAGCAAUAUUACGCUCC	-2.92 ± 0.31	-0.786 ± 0.27
UCAUAGCAAUAUUACGCUUU	-3.91 ± 0.24	-2.41 ± 0.25
UCAUAGCAAUAUUACGGAGG	-3.54 ± 0.31	-2.82 ± 0.2
UCAUAGCAAUAUUACGGCAC	-2.93 ± 0.5	-2.15 ± 0.37
UCAUAGCAAUAUUACGGCAU	-3.91 ± 0.35	-2.04 ± 0.23
UCAUAGCAAUAUUACGGCUC	-2.73 ± 0.24	-1.78 ± 0.26
UCAUAGCAAUAUUACGGGCC		-3.67 ± 0.46
UCAUAGCAAUAUUACGGGGC		-3.14 ± 0.37
UCAUAGCAAUAUUACGGUAC		-3.21 ± 0.33
UCAUAGCAAUAUUACGGUGG	-3.13 ± 0.15	-2.07 ± 0.17
UCAUAGCAAUAUUACGUCGA	-0.314 ± 0.093	-0.745 ± 0.13
UCAUAGCAAUAUUACGUUUG	-3.04 ± 0.18	-1.84 ± 0.2
UCCAAGCAAUAUUACGACGC	-2.45 ± 0.18	-1.25 ± 0.14
UCCAAGCAAUAUUACGACUC	-3.4 ± 0.29	-2.62 ± 0.24
